Reference: US20240294585A1 (MANTRA BIO, published 2024)

Columns and labels:
[1] = biological target: T1, Isopeptide(3)_Isopeptide(1)_Isopeptide(2) domains-IGSF8 VLM fusion protein (Homo sapiens (IGSF8 portion)); test: Capillary electrophoresis-Western blot, anti-S-tag, peptide incubated 3 h at RT with modified EVs (FIG. 13)
T1 construct: Flag-tagged fusion of three isopeptide domains and IGSF8; also called Tricatcher-1-IGSF8; Tricatcher-1-IGSF8 fusion protein
Description: (§1) EVs were harvested and purified from producer cells transfected with each of the indicated recombinant isopeptide domain-containing proteins as described above in Example 11. EVs denoted as “Un” were harvested and purified in parallel from untransfected cells. Two additional GPC3 affinity peptide-Isopeptide Tag fusion peptides, namely to either Isopeptide-1 tag or Isopeptide-3 tag, are tested for the ability form a covalent bond (i.e., isopeptide bond) with the IGSF8 fusion proteins comprising IGSF8 as a VLM and an Isopeptide-2 domain (SEQ ID NO: 200 from expression vector in FIG. 2), Isopeptide-1 and Isopeptide-2 domains (SEQ ID NO: 202 from expression vector in FIG. 3) or Isopeptide-1, Isopeptide-2 and Isopeptide-3 domains (SEQ ID NO: 204 from expression vector in FIG. 4; also called Tricatcher-1-IGSF8 fusion protein), indicated as “Iso-2,” “Di” and “Tri,” respectively, for the Isopeptide domain-VLM status (see FIG. 13). GPC3 affinity peptide (PEPN)-Isopeptide-1 Tag fusion peptide and GPC3 affinity peptide-Isopeptide-3 Tag fusion peptide additionally have an S-peptide epitope tag (S-tag) and V5 epitope tag, respectively; while the IGSF fusion proteins all have a Flag epitope tag. […]

[2] = biological target: T2, Isopeptide(1)_Isopeptide(2) domains-IGSF VLM fusion protein (Homo sapiens (IGSF8 portion)); test: as above
T2 construct: also called Di; DiCatcher-IGSF8
Description: as §1

[3] = biological target: T1, Isopeptide(3)_Isopeptide(1)_Isopeptide(2 …); test: Cy3 fluorescence on SDS-PAGE, conjugate incubated with modified EVs
Description: 3 μL 500 mM DTT. Samples are mixed, vortexed briefly, spun and heated to 95° C. for 5 min before loading 15 μL per well of NuPAGE® Bis-Tris precast gel. Gel is run at 125V for 1 hr using 1×2-(N-morpholino)ethanesulfonic acid (MES) buffer, following gel manufacturer recommendation, with the loading dye front permitted to run off the gel in order to better separate high molecular weight bands. Seeblue Plus 2 Pre-stained Standard is used as molecular weight standard to follow the course of the electrophoresis and well as a reference for the determining the apparent molecular weight of the targeting moiety-VLM conjugate, in particular, the 5′-IsoPepTag1-ASO-Tricatcher-1-IGSF8 and 3′-IsoPepTag1-ASO-Tricatcher-1-IGSF8 conjugates.

[4] = biological target: T1, Isopeptide(3)_Isopeptide(1)_Isopeptide(2 …); test: Capillary electrophoresis-Western blot, anti-V5, peptide incubated 3 h at RT with modified EVs (FIG. 13)
Description: as §1

[5] = biological target: T1, Isopeptide(3)_Isopeptide(1)_Isopeptide(2 …); test: Capillary electrophoresis-Western blot (Jess), anti-myc, peptide incubated with modified EVs
Description: (§2) for a total volume of 50 μL. […] Samples are mixed by repeated pipetting. The microtiter plate is covered, spun at 50×g for 1 min and incubated at RT with shaking on an orbital shaker for 3 hrs. Reaction is terminated by adding 12.5 μL of 5× termination buffer (5% SDS, 300 mM Tris-HCl (pH 6.8)), mixing and transferring to 1.5-mL microfuge tube, and heating the tube to 95° C., 5 min. Samples are analyzed on a combined automated capillary electrophoresis and Western blot system (Jess™ Simple Western system) according to the manufacturer ProteinSimple® (San Jose, CA), using anti-myc or anti-FLAG antibody as a primary antibody followed by a goat anti-mouse secondary antibody-conjugated to horseradish peroxidase for chemiluminescent detection.

[6] = biological target: T3, Isopeptide(2) domain-IGSF8 VLM fusion protein (Homo sapiens (IGSF8 portion)); test: as above
T3 construct: also called Iso-2; isopeptide(2)-IGSF8
T3 chain: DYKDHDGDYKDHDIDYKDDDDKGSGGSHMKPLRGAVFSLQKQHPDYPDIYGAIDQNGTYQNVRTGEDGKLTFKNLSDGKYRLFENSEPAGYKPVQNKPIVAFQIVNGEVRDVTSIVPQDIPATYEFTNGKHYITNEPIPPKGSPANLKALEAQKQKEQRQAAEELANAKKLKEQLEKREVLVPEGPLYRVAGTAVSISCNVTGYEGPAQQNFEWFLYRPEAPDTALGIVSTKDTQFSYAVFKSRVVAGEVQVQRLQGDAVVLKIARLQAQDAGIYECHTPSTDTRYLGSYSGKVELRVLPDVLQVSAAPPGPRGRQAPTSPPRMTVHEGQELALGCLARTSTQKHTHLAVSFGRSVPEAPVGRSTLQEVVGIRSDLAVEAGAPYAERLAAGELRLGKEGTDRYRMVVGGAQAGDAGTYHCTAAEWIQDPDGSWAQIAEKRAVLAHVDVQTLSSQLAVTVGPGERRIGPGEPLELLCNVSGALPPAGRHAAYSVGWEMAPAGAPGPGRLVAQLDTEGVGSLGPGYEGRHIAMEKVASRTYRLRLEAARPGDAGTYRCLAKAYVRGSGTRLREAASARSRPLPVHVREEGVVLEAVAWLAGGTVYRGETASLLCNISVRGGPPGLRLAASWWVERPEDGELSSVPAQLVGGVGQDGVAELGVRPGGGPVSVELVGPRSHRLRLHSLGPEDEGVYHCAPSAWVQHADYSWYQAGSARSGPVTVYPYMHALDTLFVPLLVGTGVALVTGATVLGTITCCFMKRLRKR
Description: as §2

[7] = biological target: T2, Isopeptide(1)_Isopeptide(2) …; test: as above
Description: as §2

[8] = biological target: T3, Isopeptide(2) domain-IGSF8 VLM fusion …; test: Capillary electrophoresis-Western blot (Jess), anti-myc, 50 µM peptide, 3 h at RT with modified EVs
Description: as §2

B1: S-tag labeled Isopeptide(1) tag fusion peptide, SEQ ID NO: 238 (peptide)
peptide: AHIVMVDAYKPTKSGGGGSGGGGKETAAAKFERQHMDSTHVSPNQGGLPS
notes: Order is isopeptide-1 tag, linker, S-tag, PEPN; also called C-terminal PEPN + Isopeptide(1) tag
binding result [1]: binds | binding result [2]: binds

B2: 3′-IsoPepTag1-ASO (peptide)
peptide: CAHIVMVDAYKPTK
modifications: N-terminal Cys joined by click chemistry to the 3′ end of the antisense oligonucleotide TGC GCT CCT GGA CGT AGC C, which carries Cy3 at its 5′ end
notes: Peptide-oligonucleotide conjugate; also called 3′-IsoPep1Tag-ASO; C-IsoPep1Tag-ASO
binding result [3]: binds

B3: V5-epitope tagged Isopeptide(3) tag fusion peptide, SEQ ID NO: 244 (peptide)
peptide: THVSPNQGGLPSSGGGGSGGGGGKPIPNPLLGLDSTDPIVMIDNDKPIT
notes: also called N-terminal PEPN + Isopeptide(3) tag
binding result [4]: binds

B4: 5′-IsoPepTag1-ASO (peptide)
peptide: AHIVMVDAYKPTKC
modifications: C-terminal Cys joined by click chemistry to the 5′ end of the antisense oligonucleotide TGC GCT CCT GGA CGT AGC C, which carries Cy3 at its 3′ end
notes: Peptide-oligonucleotide conjugate; also called 5′-IsoPep1Tag-ASO; Cy3-labeled IsoPep1Tag-ASO conjugate
binding result [3]: binds

B5: V5-epitope tagged Isopeptide(3) tag fusion peptide, SEQ ID NO: 246 (peptide)
peptide: DPIVMIDNDKPITSGGGGSGGGGGKPIPNPLLGLDSTTHVSPNQGGLPS
notes: also called C-terminal PEPN + Isopeptide(3) tag
binding result [4]: binds

B6: C-IsoPep2Tag-PEPN (peptide)
peptide: THVSPNQGGLPSSGGGGSGGGGEQKLISEEDLKLGDIEFIKVNK
notes: also called Isopeptide-2 tag-PEPN fusion peptide (tag at C-terminus); N-terminal PEPN + Isopeptide(2) tag
binding result [5]: binds | binding result [6]: binds | binding result [7]: binds

B7: N-IsoPep2Tag-PEPN (peptide)
peptide: KLGDIEFIKVNKSGGGGSGGGGEQKLISEEDLTHVSPNQGGLPS
notes: also called Isopeptide-2 tag-PEPN fusion peptide (tag at N-terminus); C-terminal PEPN + Isopeptide(2) tag
binding result [5]: binds | binding result [7]: binds | binding result [8]: binds
